The series concerns the molecule itself. As to the kind of experiment: dynamic light scattering; TRAF2-C 4 uM in kinase buffer (20 mM Tris-HCl pH 7.6, 150 mM NaCl, 10% glycerol); 20-35 °C, where the particle distribution is sharp and mono-disperse.

We go through one protein from PMC8198530, “The Odd Faces of Oligomers: The Case of TRAF2-C, A Trimeric C-Terminal Domain of TNF Receptor-Associated Factor” (International Journal of Molecular Sciences, 2021).

B1: TRAF2-C, C-terminal domain truncated form of TNF Receptor Associated Factor 2 (TRAF2) (domain or fragment, human, UniProt Q12933 310-501, looked up)
chain: DQDKIEALSSKVQQLERSIGLKDLAMADLEQKVLEMEASTYDGVFIWKISDFARKRQEAVAGRIPAIFSPAFYTSRYGYKMCLRIYLNGDGTGRGTHLSLFFVVMKGPNDALLRWPFNQKVTLMLLDQNNREHVIDAFRPDVTSSSFQRPVNDMNIASGCPLFCPVSKMEAKNSYVRDDAIFIKAIVDLTGL
notes: human TRAF2, C-terminal domain (TRAF2-C), residues 310-501; It describes the protein as a trimer in equilibrium with dimers and monomers; also called TRAF2-C domain; source: E. coli BL21 (DE3), purified (NiNTA, Sephadex G25)
As to B1, the binding result was “binds”.
